In US20070190601:
Numbering of substitutions follows the chain as printed.

Assays:
Assay in all cases: cell_activity
[1] = system: T1, 3rdGTG-int (+1 start) (Streptomyces phage phiC31); conditions: DF-1 cells; 14 colonies avg
T1 sequence: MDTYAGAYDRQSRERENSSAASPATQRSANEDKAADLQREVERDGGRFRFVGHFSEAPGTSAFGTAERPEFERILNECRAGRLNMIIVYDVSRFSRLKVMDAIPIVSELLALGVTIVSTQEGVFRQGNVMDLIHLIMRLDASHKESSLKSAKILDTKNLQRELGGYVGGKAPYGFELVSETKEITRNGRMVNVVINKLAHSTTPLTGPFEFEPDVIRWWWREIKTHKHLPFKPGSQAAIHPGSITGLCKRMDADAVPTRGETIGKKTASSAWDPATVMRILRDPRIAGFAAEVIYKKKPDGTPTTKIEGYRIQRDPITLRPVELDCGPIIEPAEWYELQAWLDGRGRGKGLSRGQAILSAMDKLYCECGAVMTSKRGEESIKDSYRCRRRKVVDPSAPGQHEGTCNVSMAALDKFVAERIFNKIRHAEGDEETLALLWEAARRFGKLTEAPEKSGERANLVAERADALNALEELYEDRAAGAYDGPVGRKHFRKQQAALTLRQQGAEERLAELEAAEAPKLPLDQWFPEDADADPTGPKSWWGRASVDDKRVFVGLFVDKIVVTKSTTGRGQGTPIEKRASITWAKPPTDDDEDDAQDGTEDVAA

[2] = system: T2, 3rdGTG-int-NLS PKKKRKV appended after A605 (Streptomyces phage phiC31); conditions: DF-1 cells; 10 colonies, one experiment
T2 sequence: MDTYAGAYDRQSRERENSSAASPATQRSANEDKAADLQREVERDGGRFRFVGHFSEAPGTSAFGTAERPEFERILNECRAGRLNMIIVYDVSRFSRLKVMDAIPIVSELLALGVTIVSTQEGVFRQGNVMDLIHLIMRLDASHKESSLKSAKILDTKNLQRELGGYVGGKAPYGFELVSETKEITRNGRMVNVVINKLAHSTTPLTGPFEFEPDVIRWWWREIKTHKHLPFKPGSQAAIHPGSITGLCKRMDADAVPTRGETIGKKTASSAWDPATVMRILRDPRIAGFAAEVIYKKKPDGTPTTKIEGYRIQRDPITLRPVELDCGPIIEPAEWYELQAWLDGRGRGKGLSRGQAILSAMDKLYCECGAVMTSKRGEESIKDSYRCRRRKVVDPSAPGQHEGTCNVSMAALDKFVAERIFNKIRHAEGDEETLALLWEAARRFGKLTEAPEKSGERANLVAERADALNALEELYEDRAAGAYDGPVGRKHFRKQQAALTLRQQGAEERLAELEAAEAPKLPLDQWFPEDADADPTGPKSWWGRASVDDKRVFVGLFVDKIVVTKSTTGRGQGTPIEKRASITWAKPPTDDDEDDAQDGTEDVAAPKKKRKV

[3] = system: T3, 3rdGTG-int-NLS234 insertion PPKKKRKVE between G and S at position 234 (SEQ 61) (Streptomyces phage phiC31); conditions: DF-1 cells; 30 colonies avg
T3 sequence: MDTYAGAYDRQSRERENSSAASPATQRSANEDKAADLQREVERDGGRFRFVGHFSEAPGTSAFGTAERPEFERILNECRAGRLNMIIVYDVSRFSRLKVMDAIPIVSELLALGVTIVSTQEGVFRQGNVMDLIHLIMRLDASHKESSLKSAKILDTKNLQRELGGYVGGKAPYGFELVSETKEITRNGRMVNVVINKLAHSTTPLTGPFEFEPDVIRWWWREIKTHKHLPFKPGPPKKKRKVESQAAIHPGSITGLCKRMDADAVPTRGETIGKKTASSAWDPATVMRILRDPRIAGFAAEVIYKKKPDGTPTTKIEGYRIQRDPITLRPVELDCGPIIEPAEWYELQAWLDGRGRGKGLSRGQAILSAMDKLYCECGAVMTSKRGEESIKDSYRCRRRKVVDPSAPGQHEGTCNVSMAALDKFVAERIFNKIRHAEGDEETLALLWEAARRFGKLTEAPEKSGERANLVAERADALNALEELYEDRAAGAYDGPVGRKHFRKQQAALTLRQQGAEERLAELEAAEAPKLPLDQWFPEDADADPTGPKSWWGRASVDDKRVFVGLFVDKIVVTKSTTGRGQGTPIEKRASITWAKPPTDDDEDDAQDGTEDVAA

[4] = system: T4, NLS-int-1 N-terminal MTQGVVTG replaced with MEPKKKRK (SEQ 57), joined at +1 V (Streptomyces phage phiC31); conditions: DF-1 cells; 2.5 colonies avg, background level; reflects recombination activity, not binding
T4 sequence: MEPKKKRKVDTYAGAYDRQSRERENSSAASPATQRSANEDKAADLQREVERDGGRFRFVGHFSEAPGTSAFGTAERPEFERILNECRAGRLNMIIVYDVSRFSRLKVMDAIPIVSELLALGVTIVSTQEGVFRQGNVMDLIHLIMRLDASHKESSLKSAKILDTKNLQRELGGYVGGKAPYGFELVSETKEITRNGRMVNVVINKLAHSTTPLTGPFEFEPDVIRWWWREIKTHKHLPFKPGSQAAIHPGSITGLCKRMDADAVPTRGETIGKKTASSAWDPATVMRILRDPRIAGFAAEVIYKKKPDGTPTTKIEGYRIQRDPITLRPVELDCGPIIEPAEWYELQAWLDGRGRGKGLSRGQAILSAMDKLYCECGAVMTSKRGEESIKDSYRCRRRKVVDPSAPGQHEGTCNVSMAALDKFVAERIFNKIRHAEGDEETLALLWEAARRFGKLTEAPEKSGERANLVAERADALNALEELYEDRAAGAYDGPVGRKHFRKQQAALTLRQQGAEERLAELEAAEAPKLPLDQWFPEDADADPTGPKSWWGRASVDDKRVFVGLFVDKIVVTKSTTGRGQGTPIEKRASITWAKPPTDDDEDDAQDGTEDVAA

[5] = system: T5, NLS-int-2 MEPKKKRKV added upstream of -8 M (SEQ 58) (Streptomyces phage phiC31); conditions: DF-1 cells; 6 colonies avg
T5 sequence: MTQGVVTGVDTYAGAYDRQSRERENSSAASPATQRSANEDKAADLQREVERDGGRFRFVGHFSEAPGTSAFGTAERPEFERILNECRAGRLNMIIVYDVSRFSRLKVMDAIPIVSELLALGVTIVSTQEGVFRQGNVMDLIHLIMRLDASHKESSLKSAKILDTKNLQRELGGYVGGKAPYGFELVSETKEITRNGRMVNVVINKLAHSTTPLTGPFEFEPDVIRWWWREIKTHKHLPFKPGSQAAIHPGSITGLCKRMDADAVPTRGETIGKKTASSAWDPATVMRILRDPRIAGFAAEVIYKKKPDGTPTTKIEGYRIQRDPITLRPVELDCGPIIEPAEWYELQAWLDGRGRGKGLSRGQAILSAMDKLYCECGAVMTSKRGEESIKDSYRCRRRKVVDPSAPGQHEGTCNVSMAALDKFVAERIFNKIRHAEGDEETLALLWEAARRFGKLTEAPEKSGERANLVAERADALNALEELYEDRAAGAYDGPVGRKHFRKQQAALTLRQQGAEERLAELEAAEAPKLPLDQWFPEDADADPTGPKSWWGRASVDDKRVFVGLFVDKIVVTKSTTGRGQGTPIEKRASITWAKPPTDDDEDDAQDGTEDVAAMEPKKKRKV

[6] = system: T6, c-myc-NLS-int N-terminal MTQGVVT replaced with MAPAAKRLKLDSL (SEQ 59), NLS joined at -1 G (Streptomyces phage phiC31); conditions: DF-1 cells; 56.2 colonies avg
T6 sequence: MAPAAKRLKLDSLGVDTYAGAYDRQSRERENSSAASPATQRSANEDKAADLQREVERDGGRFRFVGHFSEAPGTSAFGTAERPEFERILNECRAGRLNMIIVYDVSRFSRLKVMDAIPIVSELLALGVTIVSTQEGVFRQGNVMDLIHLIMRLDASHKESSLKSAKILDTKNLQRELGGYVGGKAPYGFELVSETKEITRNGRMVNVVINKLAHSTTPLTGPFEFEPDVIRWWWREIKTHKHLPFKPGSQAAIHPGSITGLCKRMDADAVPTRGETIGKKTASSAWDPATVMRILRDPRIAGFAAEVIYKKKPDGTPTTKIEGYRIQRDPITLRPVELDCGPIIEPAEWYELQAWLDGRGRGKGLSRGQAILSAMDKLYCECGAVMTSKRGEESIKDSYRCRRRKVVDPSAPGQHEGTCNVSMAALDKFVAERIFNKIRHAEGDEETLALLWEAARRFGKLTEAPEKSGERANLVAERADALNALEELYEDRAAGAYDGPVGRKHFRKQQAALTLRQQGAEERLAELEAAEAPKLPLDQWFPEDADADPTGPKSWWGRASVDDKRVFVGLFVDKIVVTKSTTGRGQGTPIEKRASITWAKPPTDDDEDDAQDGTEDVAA

[7] = system: T7, int-NLS234 insertion PPKKKRKVE between G and S at position 234 (SEQ 61) (Streptomyces phage phiC31); conditions: DF-1 cells; 84 colonies avg
T7 sequence: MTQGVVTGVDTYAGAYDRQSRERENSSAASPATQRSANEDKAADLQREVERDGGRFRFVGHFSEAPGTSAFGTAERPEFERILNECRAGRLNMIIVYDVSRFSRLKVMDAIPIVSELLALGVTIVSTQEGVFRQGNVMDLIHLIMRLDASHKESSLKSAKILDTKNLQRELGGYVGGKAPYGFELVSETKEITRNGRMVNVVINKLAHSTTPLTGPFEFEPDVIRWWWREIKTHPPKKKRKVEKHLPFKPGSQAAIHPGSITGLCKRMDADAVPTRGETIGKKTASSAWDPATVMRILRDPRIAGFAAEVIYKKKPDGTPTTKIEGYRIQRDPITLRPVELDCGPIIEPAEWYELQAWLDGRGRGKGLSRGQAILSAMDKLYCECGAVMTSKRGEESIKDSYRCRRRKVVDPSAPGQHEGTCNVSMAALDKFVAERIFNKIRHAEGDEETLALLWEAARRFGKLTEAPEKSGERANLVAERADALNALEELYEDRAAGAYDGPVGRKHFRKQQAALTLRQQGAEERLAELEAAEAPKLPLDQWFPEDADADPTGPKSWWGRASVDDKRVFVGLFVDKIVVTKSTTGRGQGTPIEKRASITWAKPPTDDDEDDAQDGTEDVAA

[8] = system: T8, phiC31 integrase (wild type, -8 ATG start) (Streptomyces phage phiC31); conditions: integration of pCMV-pur-attB into chicken DF-1 genome pseudo-attP sites; 103.8 colonies avg
T8 sequence: T4 sequence with E2T, P3Q, K4G, K5V, K6V, R7T, K8G

Substance: phiC31 attB (donor plasmid)
- activity (fold over no integrase) [1]: 5.4
- activity (fold over no integrase) [2]: 3.8
- activity (fold over no integrase) [3]: 11.5
- activity (fold over no integrase) [4]: 1
- activity (fold over no integrase) [5]: 2.3
- activity (fold over no integrase) [6]: 21.6
- activity (fold over no integrase) [7]: 32.3
- activity (fold over no integrase) [8]: 39.9
